Measurements published in article PMC7107572.

Key:
[1] = pyruvate kinase activity, HeLa lysate; details: glycan gained; control: vector and OGTcd
[2] = IP of HN-PKM2, anti-acetyl-lysine blot, 25 mM glucose; details: glycan lost; control: PKM2wt
[3] = basal ECAR, Seahorse XF24; details: glycan lost; control: PKM2wt cells
[4] = sucrose density gradient ultracentrifugation, anti-Flag blot; details: glycan lost; control: PKM2wt
[5] = exogenous PKM2 protein level in xenograft tumors; details: glycan lost; control: PKM2wt tumors
[6] = LDH-coupled pyruvate kinase assay, PEP titration, HeLa; details: glycan lost; control: PKM2wt
[7] = residual medium glucose normalised to cell number; details: glycan lost; control: PKM2wt cells

Row | Substance | enzymatic_activity [1] | other: OGA-induced lysine acetylation [2] | other: glycolytic flux [3] | oligomerisation [4] | expression_or_secretion [5] | enzymatic_activity [6] | other: cellular glucose consumption [7]
1 | pyruvate kinase M2 (PKM2): OGTwt overexpression | decreases | – | – | – | – | – | –
2 | pyruvate kinase M2 (PKM2): S362A | – | no change | decreases | increases | no change | increases | decreases
3 | pyruvate kinase M2 (PKM2): T365A | – | – | decreases | increases | no change | increases | decreases
